For two molecules, % of MAGE-A4 signal, Jurkat-NFAT; grey (>2%) results are on record in US20260098095A1.

Residue numbers refer to the chain shown, from its start.

Sequence of AGFG2 (beta, as listed by the source limits assumed, chain 3 of 2, other chains not shown): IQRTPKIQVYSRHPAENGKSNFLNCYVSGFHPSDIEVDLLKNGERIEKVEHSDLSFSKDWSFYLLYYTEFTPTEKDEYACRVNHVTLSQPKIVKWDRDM
Sequence of TRANK1 (beta, as listed by the source limits assumed, chain 3 of 2, other chains not shown): as above
Sequence of DPYSL2 (beta, as listed by the source limits assumed, chain 3 of 2, other chains not shown): as above

B1: Molecule B (bispecific antibody, V domains shown)
VH 1: YPQLVESGGGLVKPGGSLRLSCAARYPFTRLDMSWVRQAPGKGLEWVGSISPKGGSTYYNDNVLGRFTISRDNSKNTLYLQMNSLRAEDTAVYYCARDWGFFDNWGQGTLVTVSS
VL 1: AIQMTQSPSSLSASVGDRVTITCRASQSISNYLAWYQQKPGKAPKLLIYNASHPEYDVPSRFSGSGSGTDFTLTISSLQPEDFATYYCQQYSSHPYTFGQGTKLEIK
VH 2: not shown
VL 2: QAVVTQEPSLTVSPGGTVTLTCGSSTGAVTTSNYANWVQEKPGQAFRGLIGGTNKRAPGTPARFSGSLLGGKAALTLSGAQPEDEAEYYCALWYSNLWVFGGGTKLTVL
For the molecule B1, the % of MAGE-A4 signal, Jurkat-NFAT; grey (>2%) with TRANK1 worked out at 7.67%; with AGFG2, 13.3%; with DPYSL2 it was 5.19%.

B2: Molecule A (bispecific antibody, V domains shown)
VH 1: B1 VH 1 with P2V, R25P, Y26L, R30G, N104L
VL 1: B1 VL 1 with N50D, S52N, H53A, P54H, Y56N
VH 2: not shown
VL 2: B1 VL 2
Consider B2, for which the % of MAGE-A4 signal, Jurkat-NFAT; grey (>2%) was found to be 4.56% in the experiment with TRANK1 and 86.5% with AGFG2.
